Measured values from patent publication US20240287172A1 (SCIRHOM, published 2024).

T1: hiR2-FL-K542A-T7 (human, UniProt Q6PJF5 1-856)
T1 sequence: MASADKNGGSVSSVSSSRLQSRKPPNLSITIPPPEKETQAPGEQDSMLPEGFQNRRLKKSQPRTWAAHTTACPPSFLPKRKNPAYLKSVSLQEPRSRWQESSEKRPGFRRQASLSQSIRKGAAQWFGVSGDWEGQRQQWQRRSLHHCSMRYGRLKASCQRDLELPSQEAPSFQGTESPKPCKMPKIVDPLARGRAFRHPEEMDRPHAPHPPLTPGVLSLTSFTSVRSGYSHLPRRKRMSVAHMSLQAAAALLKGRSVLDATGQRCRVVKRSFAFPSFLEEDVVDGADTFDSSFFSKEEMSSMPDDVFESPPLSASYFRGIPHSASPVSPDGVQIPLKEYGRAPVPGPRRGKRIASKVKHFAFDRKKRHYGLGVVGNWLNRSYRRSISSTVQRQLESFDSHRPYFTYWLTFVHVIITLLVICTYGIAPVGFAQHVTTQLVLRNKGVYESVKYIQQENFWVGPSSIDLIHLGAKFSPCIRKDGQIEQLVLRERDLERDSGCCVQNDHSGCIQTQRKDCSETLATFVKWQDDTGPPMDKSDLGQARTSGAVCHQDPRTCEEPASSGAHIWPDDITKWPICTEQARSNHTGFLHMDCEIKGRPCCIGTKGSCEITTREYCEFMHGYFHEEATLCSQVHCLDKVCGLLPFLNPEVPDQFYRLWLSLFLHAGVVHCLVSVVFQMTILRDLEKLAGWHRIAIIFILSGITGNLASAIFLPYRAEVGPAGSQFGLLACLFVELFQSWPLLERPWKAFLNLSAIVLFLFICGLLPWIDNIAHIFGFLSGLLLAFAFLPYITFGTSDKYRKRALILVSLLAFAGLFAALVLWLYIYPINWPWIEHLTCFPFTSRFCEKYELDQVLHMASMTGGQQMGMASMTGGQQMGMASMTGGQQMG

T2: hiR2-FL-M591A-T7 (human, UniProt Q6PJF5 1-856)
T2 sequence: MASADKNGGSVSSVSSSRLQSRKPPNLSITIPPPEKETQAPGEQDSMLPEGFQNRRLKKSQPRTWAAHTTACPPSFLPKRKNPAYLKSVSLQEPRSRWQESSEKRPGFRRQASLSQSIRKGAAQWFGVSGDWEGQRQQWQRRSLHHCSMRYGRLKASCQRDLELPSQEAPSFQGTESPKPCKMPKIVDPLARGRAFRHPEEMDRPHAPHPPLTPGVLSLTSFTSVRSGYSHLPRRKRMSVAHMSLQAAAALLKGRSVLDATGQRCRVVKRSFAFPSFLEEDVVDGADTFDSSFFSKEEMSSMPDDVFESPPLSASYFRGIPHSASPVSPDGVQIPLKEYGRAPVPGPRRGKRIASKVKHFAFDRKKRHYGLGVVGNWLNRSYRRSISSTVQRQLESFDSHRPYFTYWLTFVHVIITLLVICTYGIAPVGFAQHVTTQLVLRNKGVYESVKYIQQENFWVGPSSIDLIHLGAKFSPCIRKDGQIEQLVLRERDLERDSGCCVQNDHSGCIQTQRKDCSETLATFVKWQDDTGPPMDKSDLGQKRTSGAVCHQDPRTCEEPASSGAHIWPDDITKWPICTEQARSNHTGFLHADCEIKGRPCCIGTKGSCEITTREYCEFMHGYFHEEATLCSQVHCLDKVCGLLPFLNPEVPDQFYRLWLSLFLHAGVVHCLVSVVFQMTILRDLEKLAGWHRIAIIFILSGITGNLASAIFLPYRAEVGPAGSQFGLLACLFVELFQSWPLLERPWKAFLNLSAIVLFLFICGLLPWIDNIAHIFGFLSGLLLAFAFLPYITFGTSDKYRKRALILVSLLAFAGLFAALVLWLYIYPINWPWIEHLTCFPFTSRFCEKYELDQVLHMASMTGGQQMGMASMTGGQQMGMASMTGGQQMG

B1: antibody 16 (antibody, V domains shown)
VH: QVTLKESGPGILQPSQTLSLTCSFSGFSLSTFALGVGWIRQPSGRGLEWLAHIWWDDDKYYNPALKSRLTISKDTSKNHVFLKIANVDTADTATYYCARITTYYYGMDYWGQGTSVTVSS
VL: DIVLSQSPATLSVTPGDSVSLFCRASQSIGNHLHWYQQESHASPRLLIKYASQSISGIPSRFSGSGSGTDFTLSINSVETEDFGMYFCQQSYNWPLTFGAGTKLELK
notes: mouse IgG, kappa light chain; also called clone #16; purified antibody 16
B2: antibody 3 (antibody, V domains shown)
VH: QVTLKESGPGILQPSQTLSLTCSFSGFSLTTFAMGIGWVRQPSGKGLEWLAHIWWDGEKYNNPVLKSRLTISKDTSKNQVFLRIANVDTPDTATYYCARISSIYYIIDNWGQGTSVTVSS
VL: DIVLTQSPATLSVTPGHSVSLSCRASQSISNNLHWYQKKSHESPRLLIKYVSQSISGIPSRFSGSGSGTDFTLSINSVETEDFGMYFCQQSYNWPLTFGAGTKLELK
notes: mouse IgG, kappa light chain; also called clone #3; purified antibody 3
B3: antibody 48 (antibody, V domains shown)
VH: QVQLQQSGTELVRPGTSVKVSCKASGYAFTNYLIEWVKQRPGQGLEWIGVINPGSGFTKYNEKFKGKATLTADKSSSTVYMHLSSLTSEDSAVYFCARGLYRAMDYWGQGTSVTVSS
VL: DIQMTQSPASQSASLGESVTITCLASQTIATWLAWYQQKPGKSPQLLIYGATTLADGVPSRFSGGGSGTKFSFKISSLQAEDFVSYYCQQLYSTPYTFGGGTKLEIK
notes: mouse IgG, kappa light chain; also called clone #48; purified antibody 48
B4: antibody 50 (antibody, V domains shown)
VH: QVQLQQSGAELVRPGASVKVSCKASGYAFSNYLIEWVKQRPGQGLEWIGVINPGSGFTKYNEKFKGKATLTADKSSSTAYMQLSSLTSEDSAVYFCARGLYRAMDYWGQGTSVTVSS
VL: DIQMTQSPASQSASLGESVTITCLASQTIGTWLAWYQQKPGKSPQLLIYAAASLADGVPSRFSGGGSGTKFSFKISSLQAEDFVNYYCQQIYSTPYTFGGGTKLEIK
notes: mouse IgG, kappa light chain; also called clone #50; purified antibody 50

Key:
hiR2-FL-K542A-T7 = target: T1, hiR2-FL-K542A-T7; assay: FACS on MEF-DKO cells expressing the variant, 3 µg/ml antibody
Summary of the method: (§1)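 Flow cytometry read-out of binding to variant-expressing cells after two-step staining on ice: 1 h with antibody at 3 μg/ml, then 1 h with PE-labelled goat anti-mouse IgG F(ab′)2 diluted 1:100. Controls received FACS buffer without primary antibody.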

hiR2-FL-M591A-T7 = target: T2, hiR2-FL-M591A-T7; assay: as above
Summary of the method: as §1

| Binder | loss of binding vs wild type (hiR2-FL-K542A-T7) [%] | loss of binding vs wild type (hiR2-FL-M591A-T7) [%] |
| --- | --- | --- |
| B1 | ≥ 30 |  |
| B2 | ≥ 60 |  |
| B3 |  | ≥ 30 |
| B4 |  | ≥ 30 |
